In data set [1] the test system is HeLa Kyoto. As to the kind of experiment: solubility change mitosis vs G1/S (difference of NP-40 vs SDS log2 ratios) (log2 ratio difference); higher = more soluble in mitosis.
Data set [2] has as its system HeLa Kyoto. In words: melting temperature (median over replicates), in situ; higher = more thermally stable.
Data set [3] relates to HeLa Kyoto. As to the kind of experiment: thermal stability score vs G1/S (z-score of summed log2 fold changes over temperatures); higher = more thermally stable than in G1/S.
In data set [4] the test system is HeLa Kyoto. In words: solubility in G1/S (NP-40 vs SDS abundance) (log2 ratio); higher = more soluble. As to conditions: cell cycle stage: G1/S.
Setting [5] is: cell cycle stage: early G1 (4.5 h after nocodazole release).

The text below walks through data of the supplement of paper PMC5998384.
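Wherever melting temperature (median over replicates), in situ is given: HeLa Kyoto cells synchronized by double thymidine or nocodazole block, proteins quantified by TMT10plex mass spectrometry, three independent biological replicates.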
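Wherever solubility change mitosis vs G1/S (difference of NP-40 vs SDS log2 ratios) is given: synchronized HeLa Kyoto cells (double thymidine block for G1/S, nocodazole release for mitosis), protein amounts in NP-40 versus SDS lysates quantified by mass spectrometry, three biological replicates.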
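Wherever solubility in G1/S (NP-40 vs SDS abundance) is given: HeLa Kyoto cells arrested at G1/S by double thymidine block, proteins quantified by TMT10plex mass spectrometry in mild NP-40 versus SDS extracts, three biological replicates.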
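Wherever thermal stability score vs G1/S (z-score of summed log2 fold changes over temperatures) is given: synchronized HeLa Kyoto cells, proteins quantified by TMT10plex mass spectrometry, three biological replicates, mitosis taken 0.5 h after nocodazole release, G1/S directly after double thymidine block.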

With “MSWLFGINKGPKGEGAGPPPPLPPAQPGAEGGGDRGLGDRPAPKDKWSNFDPTGLERAAKAARELEHSRYAKDALNLAQMQEQTLQLEQQSKLKEYEAAVEQLKSEQIRAQAEERRKTLSEETRQHQARAQYQDKLARQRYEDQLKQQQLLNEENLRKQEESVQKQEAMRRATVEREMELRHKNEMLRVEAEARARAKAERENADIIREQIRLKAAEHRQTVLESIRTAGTLFGEGFRAFVTDWDKVTATVAGLTLLAVGVYSAKNATLVAGRFIEARLGKPSLVRETSRITVLEALRHPIQVSRRLLSRPQDALEGVVLSPSLEARVRDIAIATRNTKKNRSLYRNILMYGPPGTGKTLFAKKLALHSGMDYAIMTGGDVAPMGREGVTAMHKLFDWANTSRRGLLLFVDEADAFLRKRATEKISEDLRATLNAFLYRTGQHSNKFMLVLASNQPEQFDWAINDRINEMVHFDLPGQEERERLVRMYFDKYVLKPATEGKQRLKLAQFDYGRKCSEVARLTEGMSGREIAQLAVSWQATAYASEDGVLTEAMMDTRVQDAVQQHQQKMCWLKAEGPGRGDEPSPS [ATAD3A]”, the “solubility change mitosis (log2)” value in data set [1] is -0.0269. Moreover, the melting temperature in data set [2] (cell cycle stage: G1/S) worked out at 50.5 °C; in data set [2] (cell cycle stage: mitosis) it was 51 °C. The thermal stability score in data set [3] (setting [5]) was -0.608; in data set [3] (cell cycle stage: mitosis), 0.271. Besides, in data set [4], the “solubility in G1/S (log2)” value is -0.0262.
“MSWVQATLLARGLCRAWGGTCGAALTGTSISQVPRRLPRGLHCSAAAHSSEQSLVPSPPEPRQRPTKALVPFEDLFGQAPGGERDKASFLQTVQKFAEHSVRKRGHIDFIYLALRKMREYGVERDLAVYNQLLNIFPKEVFRPRNIIQRIFVHYPRQQECGIAVLEQMENHGVMPNKETEFLLIQIFGRKSYPMLKLVRLKLWFPRFMNVNPFPVPRDLPQDPVELAMFGLRHMEPDLSARVTIYQVPLPKDSTGAADPPQPHIVGIQSPDQQAALARHNPARPVFVEGPFSLWLRNKCVYYHILRADLLPPEEREVEETPEEWNLYYPMQLDLEYVRSGWDNYEFDINEVEEGPVFAMCMAGAHDQATMAKWIQGLQETNPTLAQIPVVFRLAGSTRELQTSSAGLEEPPLPEDHQEEDDNLQRQQQGQS [ECSIT]”: in data set [1], the “solubility change mitosis (log2)” value was -0.1. For the same sequence, the melting temperature amounted to 54.4 °C in data set [2] (cell cycle stage: G1/S) and 56.1 °C in data set [2] (cell cycle stage: mitosis). For the same sequence, the thermal stability score came to 2.4 in data set [3] (setting [5]) and 3.63 in data set [3] (cell cycle stage: mitosis). In addition, the “solubility in G1/S (log2)” value in data set [4] was -0.0136.
Consider “MTCYRGFLLGSCCRVAGGRAAALRGPGAGGPAARPRLGGDGGGRRHLGQGQPRELAGCGSRADGGFRPSRVVVVAKTTRYEFEQQRYRYAELSEEDLKQLLALKGSSYSGLLERHHIHTKNVEHIIDSLRNEGIEVRLVKRREYDEETVRWADAVIAAGGDGTMLLAASKVLDRLKPVIGVNTDPERSEGHLCLPVRYTHSFPEALQKFYRGEFRWLWRQRIRLYLEGTGINPVPVDLHEQQLSLNQHNRALNIERAHDERSEASGPQLLPVRALNEVFIGESLSSRASYYEISVDDGPWEKQKSSGLNLCTGTGSKAWSFNINRVATQAVEDVLNIAKRQGNLSLPLNRELVEKVTNEYNESLLYSPEEPKILFSIREPIANRVFSSSRQRCFSSKVCVRSRCWDACMVVDGGTSFEFNDGAIASMMINKEDELRTVLLEQ [NADK2]”, for which the “solubility change mitosis (log2)” value in data set [1] was -0.121. Further, the results for the melting temperature in data set [2] (cell cycle stage: G1/S) and in data set [2] (cell cycle stage: mitosis) were 55.3 °C and 55.5 °C, respectively. In addition, the thermal stability score in data set [3] (setting [5]) was -0.37; in data set [3] (cell cycle stage: mitosis), 2.77. Moreover, the “solubility in G1/S (log2)” value in data set [4] was found to be 0.0487.
For the sequence “MTDGILGKAATMEIPIHGNGEARQLPEDDGLEQDLQQVMVSGPNLNETSIVSGGYGGSGDGLIPTGSGRHPSHSTTPSGPGDEVARGIAGEKFDIVKKWGINTYKCTKQLLSERFGRGSRTVDLELELQIELLRETKRKYESVLQLGRALTAHLYSLLQTQHALGDAFADLSQKSPELQEEFGYNAETQKLLCKNGETLLGAVNFFVSSINTLVTKTMEDTLMTVKQYEAARLEYDAYRTDLEELSLGPRDAGTRGRLESAQATFQAHRDKYEKLRGDVAIKLKFLEENKIKVMHKQLLLFHNAVSAYFAGNQKQLEQTLQQFNIKLRPPGAEKPSWLEEQ [ARFIP2]”, in data set [1], the “solubility change mitosis (log2)” value came to 0.0365. Moreover, the melting temperature in data set [2] (cell cycle stage: G1/S) was 51.1 °C; in data set [2] (cell cycle stage: mitosis), 50.9 °C. For the same sequence, the thermal stability score in data set [3] (setting [5]) was -0.945; in data set [3] (cell cycle stage: mitosis), -2.87. In addition, the “solubility in G1/S (log2)” value in data set [4] stood at 0.602.
